Measurements as given in US20240376186A1 (published 2024).

B1: EWE-hC3Nb1 (VHH)
VHH: QVQLVETGGGLVQAGGSLRLSCAASGSIFSINAMGWFRQAPGKEREFVATINRSGGRTYYADSVKGRFTISRDNGKNMVYLQMHSLKPEDTAIYYCAAGTGWSPQTDNEYNYWGQGTQVTVSS
B2: EWEnH (other)
chain: EWEQVQLVETGGGLVQAGGSLRLSCAASGSIFSINAMGWFRQAPGKEREFVATINRSGGRTYYADSVKGRFTISRDNGKNMVYLQMHSLKPEDTAIYYCAAGTGWSPQTDNEYNYWGQGTQVTVSSGGGGSGGGGSGGGGSGGGGSRPCGHPGDTPFGTFTLTGGNVFEYGVKAVYTCNEGYQLLGEINYRECDTDGWTNDIPICEVVKCLPVTAPENGKIVSSAMEPDREYHFGQAVRFVCNSGYKIEGDEEMHCSDDGFWSKEKPKCVEISCKSPDVINGSPISQKIIYKENERFQYKCNMGYEYSERGDAVCTESGWRPLPSCEEA
B3: EWEµH (other)
chain: EWEQVQLVETGGGLVQAGGSLRLSCAASGSIFSINAMGWFRQAPGKEREFVATINRSGGRTYYADSVKGRFTISRDNGKNMVYLQMHSLKPEDTAIYYCAAGTGWSPQTDNEYNYWGQGTQVTVSSGGGGSGGGGSGGGGSGGGGSRPCGHPGDTPFGTFTLTGGNVFEYGVKAVYTCNEGYQLLGEINYRECDTDGWTNDIPICEVVKCLPVTAPENGKIVSSAMEPDREYHFGQAVRFVCNSGYKIEGDEEMHCSDDGFWSKEKPKCVEISCKSPDVINGSPISQKIIYKENERFQYKCNMGYEYSERGDAVCTESGWRPLPSCEEAGGGGGGGGGGGGGKCGPPPPIDNGDITSFPLSVYAPASSVEYQCQNLYQLEGNKRITCRNGQWSEPPKCLHPCVISREIMENYNIALRWTAKQKLYSRTGESVEFVCKRGYRLSSRSHTLRTTCWDGKLEYPTCAKRENLYFQG

Target: C3b (UniProt P01024 23-667; P01024 749-1663)
Assay: BLI

C3b, sequence (P01024 23-667, chain 1 of 2): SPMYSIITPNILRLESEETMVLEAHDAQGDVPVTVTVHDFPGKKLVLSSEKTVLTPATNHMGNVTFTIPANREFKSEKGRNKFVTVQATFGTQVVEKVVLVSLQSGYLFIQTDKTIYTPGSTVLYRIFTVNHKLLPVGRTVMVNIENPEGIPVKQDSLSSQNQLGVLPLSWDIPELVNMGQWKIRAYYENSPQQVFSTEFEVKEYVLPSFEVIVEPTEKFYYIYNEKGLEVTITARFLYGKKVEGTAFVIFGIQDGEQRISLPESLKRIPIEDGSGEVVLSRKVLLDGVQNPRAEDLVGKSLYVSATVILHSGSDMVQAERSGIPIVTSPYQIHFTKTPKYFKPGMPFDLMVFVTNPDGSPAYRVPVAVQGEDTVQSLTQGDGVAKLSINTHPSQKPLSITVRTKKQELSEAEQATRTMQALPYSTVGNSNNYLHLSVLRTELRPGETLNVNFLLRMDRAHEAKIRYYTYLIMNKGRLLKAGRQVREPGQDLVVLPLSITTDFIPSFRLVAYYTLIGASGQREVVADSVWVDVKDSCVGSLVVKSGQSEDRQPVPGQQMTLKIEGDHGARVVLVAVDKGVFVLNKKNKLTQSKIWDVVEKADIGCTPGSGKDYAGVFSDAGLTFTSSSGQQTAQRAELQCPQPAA
C3b, sequence (P01024 749-1663, chain 2 of 2): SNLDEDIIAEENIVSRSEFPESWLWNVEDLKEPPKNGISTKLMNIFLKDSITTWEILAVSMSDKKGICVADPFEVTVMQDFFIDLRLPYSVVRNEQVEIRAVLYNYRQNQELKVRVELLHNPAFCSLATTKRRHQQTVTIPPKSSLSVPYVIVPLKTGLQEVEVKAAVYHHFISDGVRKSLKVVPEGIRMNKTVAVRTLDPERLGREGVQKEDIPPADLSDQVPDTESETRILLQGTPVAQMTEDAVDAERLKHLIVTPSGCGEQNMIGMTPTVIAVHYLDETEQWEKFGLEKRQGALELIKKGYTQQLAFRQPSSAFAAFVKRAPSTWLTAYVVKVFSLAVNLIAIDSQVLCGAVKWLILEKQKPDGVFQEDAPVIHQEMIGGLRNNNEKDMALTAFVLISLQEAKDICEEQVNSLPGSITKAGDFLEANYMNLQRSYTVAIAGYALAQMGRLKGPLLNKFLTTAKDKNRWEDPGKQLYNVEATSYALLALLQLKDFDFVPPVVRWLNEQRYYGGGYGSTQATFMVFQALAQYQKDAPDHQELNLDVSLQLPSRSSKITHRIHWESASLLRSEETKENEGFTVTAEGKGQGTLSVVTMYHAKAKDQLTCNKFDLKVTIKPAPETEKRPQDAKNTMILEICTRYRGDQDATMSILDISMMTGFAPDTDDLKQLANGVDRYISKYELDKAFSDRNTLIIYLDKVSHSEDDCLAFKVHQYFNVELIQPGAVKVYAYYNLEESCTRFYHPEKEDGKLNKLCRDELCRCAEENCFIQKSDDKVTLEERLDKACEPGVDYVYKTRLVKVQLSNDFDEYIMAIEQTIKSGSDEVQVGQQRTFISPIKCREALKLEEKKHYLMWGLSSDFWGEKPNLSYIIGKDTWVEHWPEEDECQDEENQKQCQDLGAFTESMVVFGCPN

Binder	Kd [nM]
B1	3
B2	7.1
B3	0.4
